From US20250312444A1 (BEIJING TUO JIE BIOPHARMACEUTICAL, published 2025)

T1: monkey serum albumin (CySA) (monkey)
T1 chain: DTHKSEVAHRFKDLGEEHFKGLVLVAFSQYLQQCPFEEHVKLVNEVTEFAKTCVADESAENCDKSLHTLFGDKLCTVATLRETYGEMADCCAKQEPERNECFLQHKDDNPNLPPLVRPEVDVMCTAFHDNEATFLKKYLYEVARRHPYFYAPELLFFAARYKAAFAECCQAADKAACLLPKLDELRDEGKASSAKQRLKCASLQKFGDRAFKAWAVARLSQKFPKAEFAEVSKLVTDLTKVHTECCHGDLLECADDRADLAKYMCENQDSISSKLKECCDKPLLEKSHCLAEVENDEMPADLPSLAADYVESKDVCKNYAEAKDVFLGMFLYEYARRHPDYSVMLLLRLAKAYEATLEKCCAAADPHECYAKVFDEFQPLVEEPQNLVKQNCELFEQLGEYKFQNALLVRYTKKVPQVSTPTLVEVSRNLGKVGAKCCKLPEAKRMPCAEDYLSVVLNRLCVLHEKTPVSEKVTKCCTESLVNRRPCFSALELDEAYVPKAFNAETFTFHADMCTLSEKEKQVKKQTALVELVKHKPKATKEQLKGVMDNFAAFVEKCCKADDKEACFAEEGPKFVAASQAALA

T2: rat serum albumin (rat)
T2 chain: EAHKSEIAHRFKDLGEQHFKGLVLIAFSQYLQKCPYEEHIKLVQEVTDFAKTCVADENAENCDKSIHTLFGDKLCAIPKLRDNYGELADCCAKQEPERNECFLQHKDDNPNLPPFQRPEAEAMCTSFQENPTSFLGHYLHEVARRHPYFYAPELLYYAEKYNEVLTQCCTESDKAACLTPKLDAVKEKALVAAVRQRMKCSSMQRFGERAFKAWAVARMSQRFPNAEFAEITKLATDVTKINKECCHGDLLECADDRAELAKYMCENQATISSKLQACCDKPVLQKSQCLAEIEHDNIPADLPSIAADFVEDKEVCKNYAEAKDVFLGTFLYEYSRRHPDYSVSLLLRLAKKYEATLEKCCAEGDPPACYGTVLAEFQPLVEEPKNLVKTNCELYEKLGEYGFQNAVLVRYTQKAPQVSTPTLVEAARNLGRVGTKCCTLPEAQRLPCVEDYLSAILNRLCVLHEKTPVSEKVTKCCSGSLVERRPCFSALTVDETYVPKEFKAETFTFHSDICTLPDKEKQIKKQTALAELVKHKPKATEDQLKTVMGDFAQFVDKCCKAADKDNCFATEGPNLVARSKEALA

T3: human RXFP1 receptor (human, UniProt Q9HBX9 1-757)
T3 sequence (looked up): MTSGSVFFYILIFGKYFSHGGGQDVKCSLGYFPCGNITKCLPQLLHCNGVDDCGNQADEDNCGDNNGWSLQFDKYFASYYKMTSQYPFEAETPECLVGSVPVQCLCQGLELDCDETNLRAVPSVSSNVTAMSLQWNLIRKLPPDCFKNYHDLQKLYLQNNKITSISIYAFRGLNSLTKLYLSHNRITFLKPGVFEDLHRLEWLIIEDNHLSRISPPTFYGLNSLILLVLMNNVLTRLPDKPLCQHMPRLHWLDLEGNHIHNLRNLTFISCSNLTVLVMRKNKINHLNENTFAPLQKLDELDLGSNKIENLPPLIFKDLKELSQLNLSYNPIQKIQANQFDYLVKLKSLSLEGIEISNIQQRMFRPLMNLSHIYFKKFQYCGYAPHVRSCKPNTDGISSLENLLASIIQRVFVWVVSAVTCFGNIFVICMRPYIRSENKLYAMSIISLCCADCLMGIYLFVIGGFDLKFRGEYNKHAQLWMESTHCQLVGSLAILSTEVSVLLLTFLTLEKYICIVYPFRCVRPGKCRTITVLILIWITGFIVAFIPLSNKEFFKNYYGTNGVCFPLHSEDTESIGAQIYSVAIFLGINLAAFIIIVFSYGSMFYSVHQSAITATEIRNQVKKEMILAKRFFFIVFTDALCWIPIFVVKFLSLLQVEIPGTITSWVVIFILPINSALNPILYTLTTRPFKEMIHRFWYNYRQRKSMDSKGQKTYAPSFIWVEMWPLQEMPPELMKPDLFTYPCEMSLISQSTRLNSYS


Experiments:
[1] = target: T1, monkey serum albumin (CySA); test: phage supernatant ELISA, albumin coated
[2] = target: human serum albumin (HSA) (human); test: phage supernatant ELISA, albumin coated
[3] = target: mouse serum albumin (mSA) (mouse); test: phage supernatant ELISA, albumin coated
[4] = target: human serum albumin (HSA) (human); test: SPR Biacore T200, fusion protein captured by anti-VHH antibody, albumin as analyte
Method: (§1) Coupling of an anti-VHH antibody (MonoRab™ Rabbit Anti-Camelid VHH Cocktail, Genescript, Cat No. A02014) to an S series CM5 sensor chip (GE, Cat No. 29-1049-88) was performed using an amino coupling kit (GE, Cat No. BR-1000-50). The antibody was diluted to 10 μg/mL with 10 mM sodium acetate (pH 4.5) (GE, Cat No. BR-1003-50). After the CM5 chip was activated with EDC/NHS, the diluted anti-VHH antibody was flowed over the chip to reach a surface response value of about 5000 RU, and then the chip was blocked with ethanolamine for later use.
(§2) The albumin from each species was serially diluted in a gradient with 1XHBS-EP (10 mM HEPES, pH 7.4, 150 mM NaCl, 3 mM EDTA, 0.05% Surfactant P20). The test fusion protein molecule was captured using the anti-VHH antibody-coupled chip, with a response value of about 30 RU. Then, different concentrations of serum albumin were flowed over the surface of the chip for 3 min at a flow rate of 50 μL/min, with a dissociation time of 1-10 min (the dissociation time varied depending on the species of albumin). After the end of each cycle, the chip was regenerated using 10 mM glycine-hydrochloric acid (pH 1.5) (GE, Cat No. BR-1003-54). The reaction signals were detected in real-time using Biacore T200 (GE) to obtain the association and dissociation curves, and the data obtained were fitted with a Langmuir 1:1 binding model using the BIAevaluation version 4.1 software at appropriate concentration points to obtain the affinity values.

[5] = target: T2, rat serum albumin; test: as above
Method: as §1, §2

[6] = target: T3, human RXFP1 receptor; test: cell-based or functional assay
[7] = target: human serum albumin (HSA) (human); test: SPR Biacore T200, albumin amine-coupled, fusion protein as analyte
Method: (§3) Coupling of serum albumins from different species to an S series CM5 sensor chip (GE, Cat. 29-1049-88) was performed using an amino coupling kit (GE, Cat No. BR-1000-50). The albumin from each species was diluted to 2 μg/mL. After the CM5 chip was activated with EDC/NHS, the diluted albumin was flowed over the chip to reach a surface response value of about 200 (180 to 230) RU, and then the chip was blocked with ethanolamine. The blank control channel also needed to be activated with EDC/NHS and blocked with ethanolamine. […] The samples of 0051 and 0054 at different concentrations were separately flowed through the albumin-coupled and blank channels for 3 min at a flow rate of 50 μL/min, with a dissociation time of 4 min. After the end of each cycle, the chip was regenerated using 10 mM glycine-hydrochloric acid (pH 1.5) (GE, Cat. #BR-1003-54). The reaction signals were detected in real-time using Biacore T200 (GE) to obtain the association and dissociation curves, and the data obtained were fitted with a Langmuir 1:1 binding model using the BIAevaluation version 4.1 software at appropriate concentration points to obtain the affinity values.

[8] = target: T2, rat serum albumin; test: as above
Method: as §3

[9] = target: mouse serum albumin (mSA) (mouse); test: as above
Method: as §3

OD450 [1]	OD450 [2]	OD450 [3]	Kd [4]	koff [4]	kon [4]	Kd [5]	koff [5]	kon [5]	EC50 (nM), cAMP production in THP1 cells, 1% HSA [6]	EC50 (nM), cAMP production in THP1 cells, without HSA [6]	Kd [7]	koff [7]	kon [7]	Kd [8]	koff [8]	kon [8]	Kd [9]	koff [9]	kon [9]	Binder
1.75 OD450	1.69 OD450	1.12 OD450																		#7aHSA (VHH, also called clone #7) VHH: HVQLVESGGGSVQAGGSLRVSCVASGNTYLTSCMGWFRQAPGKEREGVASIYTVGGSTFYTNSVKGRFTISRDNAKNTVYLQMNSLQPEDTAMYYCAAGSPARCRLRDPTTFDYWGQGTQVTVSS
			9.65 nM	0.000867 s⁻¹	89900 M⁻¹ s⁻¹	145 nM	0.00599 s⁻¹	41300 M⁻¹ s⁻¹	21.5 nM	5.22 nM										0052 (other, Single-chain fusion: anti-HSA VHH, linker, relaxin-2 B chain, linker, relaxin-2 A chain; also called fusion protein 0052) EVQLLESGGGLVQPGGSLRLSCAASGFTFLTSCMGWFRQAPGKEREGVSSIYTVGGSTFYTNSVKGRFTISRDNSKNTLYLQMNSLRAEDTAVYYCAAGSPARCRLRDPTTFDYWGQGTLVTVSSPGPAPGPAPGPAPGPAPGPAPGPAPGPAPGPASWMEEVIKLCGRELVRAQIAICGMSTWSGGGSGGSGGGQLYSALANKCCHVGCTKRSLARFC
1.82 OD450	1.52 OD450	1.09 OD450																		#9aHSA (VHH, also called clone #9) VHH: DVQLVESGGGSVQAGGSLRLSCAAAEYTYLNSCLGWFRQAPGKEREGVATIYMVGGSTFYADSVKGRFTISRDNAKNTVYLMMNSLKPEDTAMYYCAAGSPARCLRRDPTTFNYWGQGTQVTVSS
			15.8 nM	0.000563 s⁻¹	35700 M⁻¹ s⁻¹	183 nM	0.0113 s⁻¹	61500 M⁻¹ s⁻¹			0.099 nM	0.000181 s⁻¹	1.83e+06 M⁻¹ s⁻¹	1.06 nM	0.00246 s⁻¹	2.31e+06 M⁻¹ s⁻¹	1.37 nM	0.0027 s⁻¹	1.97e+06 M⁻¹ s⁻¹	0054 (other, also called positive control 0054; positive control molecule 0054) EVQLLESGGGLVQPGGSLRLSCAASGRYIDETAVAWFRQAPGKGREFVAGIGGGVDITYYADSVKGRFTISRDNSKNTLYLQMNSLRPEDTAVYYCAARPGRPLITSKVADLYPYWGQGTLVTVSSGGGGQGGGGQGGGGQGGGGQGGGGQSWMEEVIKLCGRELVRAQIAICGMSTWSGGGSGGSGGGQLYSALANKCCHVGCTKRSLARFC
			9.68 nM	0.000797 s⁻¹	82300 M⁻¹ s⁻¹	159 nM	0.00567 s⁻¹	35700 M⁻¹ s⁻¹	23 nM	2.08 nM										0065 (other, Single-chain fusion: anti-HSA VHH, linker, relaxin-2 B chain, linker, relaxin-2 A chain; also called fusion protein 0065) EVQLLESGGGLVQPGGSLRLSCAASGFTFLTSCMGWFRQAPGKEREGVSSIYTVGGSTFYTNSVKGRFTISRDNSKNTLYLQMNSLRPEDTAVYYCAAGSPARCRLRDPTTFDYWGQGTLVTVSSGGGGQGGGGQGGGGQGGGGQGGGGQSWMEEVIKLCGRELVRAQIAICGMSTWSGGGSGGSGGGQLYSALANKCCHVGCTKRSLARFC
			5.59 nM	0.00086 s⁻¹	154000 M⁻¹ s⁻¹	58.5 nM	0.00579 s⁻¹	98900 M⁻¹ s⁻¹	19.8 nM	8.5 nM										0064 (other, Single-chain fusion: anti-HSA VHH, linker, relaxin-2 B chain, linker, relaxin-2 A chain; also called fusion protein 0064) EVQLLESGGGLVQPGGSLRLSCAASGNTYLTSCMGWFRQAPGKEREGVSSIYTVGGSTFYTNSVKGRFTISRDNSKNTLYLQMNSLQPEDTAVYYCAAGSPARCRLRDPTTFDYWGQGTLVTVSSGGGGQGGGGQGGGGQGGGGQGGGGQSWMEEVIKLCGRELVRAQIAICGMSTWSGGGSGGSGGGQLYSALANKCCHVGCTKRSLARFC
